According to a protein production outcome set (Wang et al. 2014):

Test: label from the status in PepcDB records

| Sequence | protein production |
| --- | --- |
| MPLVHRSALPALCLSLILPWTFSVQAADPAPETKTPEEQPAQRQPLPERSQKDAAALERQLPALEQQQLQAGGDTFLALWKPANTSDPKGVVIILPGAGETADWPQAIAPLRNKLPDTEWASLSLTLPDMLSEAAQPRVVEAAPVPTDKANTAKDASTEAKPIEQVAGGEADVADRVVAESTEEQIKADAERIFTRVDAALAFAEQQNARSIVLLGHGTGAYWAARYLSEKQPAQVQKLVMVAAQSPANGKPQLAEITPTLKLATADFFYVDKPLAQKAALERLQASKRLKHSNFSQIPLKALPGNNTAQQEQLFRRVRGWLNPQNTDS | not failed |
| MTQLQISLLLTATISLLHLVVATPYEAYPIGKQYPPVARVNESFTFQISNDTYKSSVDKTAQITYNCFDLPSWLSFDSSSRTFSGEPSSDLLSDANTTLYFNVILEGTDSADSTSLNNTYQFVVTNRPSISLSSDFNLLALLKNYGYTNGKNALKLDPNEVFNVTFDRSMFTNEESIVSYYGRSQLYNAPLPNWLFFDSGELKFTGTAPVINSAIAPETSYSFVIIATDIEGFSAVEVEFELVIGAHQLTTSIQNSLIINVTDTGNVSYDLPLNYVYLDDDPISSDKLGSINLLDAPDWVALDNATISGSVPDELLGKNSNPANFSVSIYDTYGDVIYFNFEVVSTTDLFAISSLPNINATRGEWFSYYFLPSQFTDYVNTNVSLEFTNSSQDHDWVKFQSSNLTLAGEVPKNFDKLSLGLKANQGSQSQELYFNIIGMDSKITHSNHSANATSTRSSHHSTSTSSYTSSTYTAKISSTSAAATSSAPAALPAANKTSSHNKKAVAIACGVAIPLGVILVALICFLIFWRRRRENPDDENLPHAISGPDLNNPANKPNQENATPLNNPFDDDASSYDDTSIARRLAALNTLKLDNHSATESDISSVDEKRDSLSGMNTYNDQFQSQSKEELLAKPPVQPPESPFFDPQNRSSSVYMDSEPAVNKSWRYTGNLSPVSDIVRDSYGSQKTVDTEKLFDLEAPEKEKRTSRDVTMSSLDPWNSNISPSPVRKSVTPSPYNVTKHRNRHLQNIQDSQSGKNGITPTTMSTSSSDDFVPVKDGENFCWVHSMEPDRRPSKKRLVDFSNKSNVNVGQVKDIHGRIPEML | failed |
| DVARVQRLAAALATAGTVRDVSQAVVAALRRPLRADRIALAELENDRLVVTVLDPPDPESWPELWRLEWRTEWPDAPVRAMPTLAAALREGRARIWPAGTGDLEPALADVGPGGLAVLPLPAGGRMAGACLIGWDTPHDFGPDERALLTASAGLAGQALMRAHAFDAEHELVGMLQRQL | failed |
| MLMVFALLVSLAFASYHPDDAVVLRSADWSEVVLNPQSAQADGPVQNVLGLLGAQLAEACVPGFIGYGVLLISGLLMVWGYAVFRHASLRRLLYPSLLTAFSAFILSCVVGWVHHTVDAPLRAWAGLVGIGTAGWMQNVFGEVGSFILLLLAGAVLLLLVVDHDIQRTVDRVIRAARRIGAGVSAAGAYIRDQWSRARAHAPEPKATSPASDPSSSASASGSPSASSPEPPSSPPAEESTSSPPPARTRPEDSGAQTPSVRRNDLFRPGRDPAPSATDDNTASPEPAPDSSARTSDADPPEDDAPKDIPDETTASTPAEESPATDSPPPSRPADENASSDEPAAPAPDEPPPDASDGPDDDVSMTIQEQVEEETTDEIERTAELPDDFEYEPPSLDLLDESVDTDPTINREELEENKRVLLDKLDMYNIEIEEINAVVGPTVTRYELTPAPGIKVSRIKSLEDDLAMAMAAPGIRMIAPIPGKSAVGVEIPNRNRELVRLRDVIGTRKFQDTDLKLPLPLGKNIEGEVHVGDLATMPHLLIAGATGSGKSVGLNSIITGLIYACHPANLRFVIIDPKKIELQQYTALETQFVAVPEDIDQTVITDIDEASGVLKSVEREMETRYDLLSDASVRNITGYNEKFQAGELDPTEGHRHMPYLVVVVDELADLMMAAGDDVEGPISRLAQMARAVGIHLILATQRPSVDVVTGVIKANFPSRIAFEVASRVDSRTILDQGGAEDLVGNGDMLFLSGSDLKRLQGPFVSVEEVEEVVDYVADQPGVTPYTLPSLQDAGHGPDETLGVEDTDEKFEEAARVIVRRQQGSVSLLQRKLAVGYTRAARIVDQLEEAGIVGPFNGTKARDVLVDDEQALDDLLHGEDADEADPEEA | failed |
| SEEEEYEQIPQENPPEELSQDPVLELSGGLREKEQKTPRRLRLILMGKTGSGKSATGNSILGRDVFESKLSTRPVTKTSQRRSREWAGKELEVIDTPNILSPQVSPEVADAICQAIVLSAPGPHAVLLVTQLGRFTDEDQQVVRRLQEVFGVGVLGHTILVFTRKEDLAGGSLEDYVRETNNQALAWLDVTLARRHCGFNNRAQGEEQEAQLRELMEKVEAIMWENEGDYYSNKAYQYTQQNFRLKELQERQVSQGQGSEDVPGEESWLEGLSQIQKESEEAHRCLLGKADL | not failed |
